Experimental data reported in US12006530B2, “Streptococcal proteases” (priority 2016, dated 2024).

How the values were obtained:
porcine IgG [1] = assay: IgG cleavage by IgdE, SDS-PAGE; assay type: biochemical, pig; conditions: purified polyclonal IgG, reducing SDS-PAGE
Protocol: (A) Schematic illustration of IgdE and the different rIgdE constructs with potential active site residues substitutions and the C-terminal truncation variant. The secretion signal peptide (residues 1-37) is marked in light grey, the transglutaminase domain is boxed and the potential active site residues and substitutions are indicated. (B) 3.3 μM porcine IgG was incubated for 16 h at 37° C. with soluble fractions of E. coli cells expressing different rIgdE constructs. The reaction was analyzed SDS-PAGE under reducing conditions. […] The weak protein band of 37 kDa is a contaminant present in lysate preparation and not related to IgdE activity.
(§1) 0.5 mg/ml of porcine IgG (Sigma) in PBS or of other species (human, goat, cow, horse and mouse; all Sigma) were incubated with either crude extracts of induced E. coli carrying S. suis IgdE constructs mentioned above or 10 nM purified rIgdE for 16 h at 37° C. prior subjection to SDS-PAGE under either reducing or non-reducing conditions.
(§2) Samples for SDS-PAGE were prepared with either reducing or non-reducing sample buffer and heated to 95° C. for 5 min. 12% SDS-PAGE was either stained with Coomassie blue (Sigma), Coomassie Fluor™ Orange Protein Gel Stain (Invitrogen) or blotted to Hybond-P PVDF membrane (GE Healthcare) for western blot analyses. Membranes were blocked with 5% dry milk powder in 0.1% PBS-Tween, followed by incubation with horse-radish peroxidase conjugated antibodies. Goat anti-pig IgG-HRP (Thermo Scientific) and goat anti-porcine IgM-HRP (Thermo Scientific) was diluted 1:25′000 and goat anti-porcine IgA-HRP (Thermo Scientific) was diluted 1:12′500. Membranes were thoroughly washed with 0.1% PBS-Tween prior to development with Amersham ECL Select Western blotting detection reagent (GE Healthcare) according to manufactures instruction and pictured by LAS4000 imaging system (Fujifilm).

human IgG = assay: IgG cleavage by IgdE, SDS-PAGE; assay type: biochemical; conditions: purified polyclonal IgG, reducing SDS-PAGE
Protocol: (§3) (A) rIgdEagalactiae was incubated with polyclonal IgG of six different species for 18 h at 37° C. and analyzed by SDS-PAGE under reducing conditions. Degradation products are indicated by asterisks (*). Images of different gels have been used to create the figure. (B) rIgdEagalactiae was incubated with human or bovine serum for 18 h in 37° C. and analyzed by SDS-PAGE under reducing conditions. Degradation products are indicated by asterisks (*). (C) Western Blot with crude extracts of rIgdEagalactiae incubated with human and porcine serum for 18 h in 37° C. Membrane was treated with antibodies against human and porcine polyclonal IgG respectively. Degradation products are indicated by asterisks (*). (D) rIgdEagalactiae was incubated with subclasses of human IgG as well as human IgA and IgM for 18 h in 37° C. and analyzed by SDS-PAGE under reducing conditions. Degradation products are indicated by asterisks (*). Images of different gels have been used to create the figure.
as §1, §2

cow IgG = assay: IgG cleavage by IgdE, SDS-PAGE; assay type: biochemical; conditions: purified polyclonal IgG, reducing SDS-PAGE
Protocol: as §1, §2

goat IgG = assay: IgG cleavage by IgdE, SDS-PAGE; assay type: biochemical; conditions: purified polyclonal IgG, reducing SDS-PAGE
Protocol: as §1, §2

horse IgG = assay: IgG cleavage by IgdE, SDS-PAGE; assay type: biochemical; conditions: purified polyclonal IgG, reducing SDS-PAGE
Protocol: as §1, §2

mouse IgG = assay: IgG cleavage by IgdE, SDS-PAGE; assay type: biochemical; conditions: purified polyclonal IgG, reducing SDS-PAGE
Protocol: as §1, §2

porcine IgG [2] = assay: Ig cleavage in porcine plasma or serum, anti-IgG Western blot; assay type: biochemical, pig
Protocol: (§4) (A) 2% porcine plasma was incubated with (+) or without (−) 10 nM purified rIgdE.
(§5) The reaction was analyzed by anti-porcine IgG, IgM and IgA Western blots under reducing conditions. Only cleavage of IgG was observed (*). (B) 0.5 mg/ml IgG of different species was incubated with (+) or without (−) 10 nM purified rIgdE and analyzed by SDS-PAGE under reducing conditions. No cleavage of IgG derived from any other species than pig (*) was observed. The weak protein band of 37 kDa is a contaminant present in lysate preparation (see lane 2) and not related to IgdE activity. Images of different gels have been assembled into one figure.
as §2, with “Membranes were thoroughly washed with 0.1% PBS-Tween prior to development with Amersham ECL Select Western blotting detection reagent (GE Healthcare) according to manufactures instruction and pictured by LAS4000 imaging system (Fujifilm).” left out

porcine IgA = assay: Ig cleavage in porcine plasma or serum, anti-IgA Western blot; assay type: biochemical, pig
Protocol: as §4, §5
as §2, with “Membranes were thoroughly washed with 0.1% PBS-Tween prior to development with Amersham ECL Select Western blotting detection reagent (GE Healthcare) according to manufactures instruction and pictured by LAS4000 imaging system (Fujifilm).” left out

IgG = IgG degrading cysteine protease activity: specificity as summarised; assay type: biochemical; conditions: summary statement
Description: Typically, polypeptides for use in accordance with the invention display immunoglobulin cysteine protease activity, and in particular IgG degrading cysteine protease activity. Preferably, the polypeptide cleaves IgG in the hinge region and more particularly in the hinge region of the heavy chain. Preferably, cleavage results in production of Fc and Fab fragments of IgG. Preferably the activity is specific for IgG. The IgG degrading cysteine protease activity may be determined by means of a suitable assay. For example, a test polypeptide may be incubated with IgG at a suitable temperature, such as 37° C. The starting materials and the reaction products may then be analysed by SDS PAGE to determine whether the desired IgG cleavage product is present. Typically this cleavage product is a 32 kDa fragment. Typically there is no further degradation of IgG after this first cleavage. The cleavage product may be subjected to N-terminal sequencing to verify that cleavage has occurred in the hinge region of IgG.
The IgG degrading cysteine protease activity of the polypeptides is generally IgG-specific in that the polypeptides may not degrade other classes of Ig, namely IgM, and IgA, when incubated with these immunoglobulins under conditions that permit cleavage of IgG.

rat IgG = assay: IgG cleavage by IgdE, SDS-PAGE; assay type: biochemical; conditions: purified polyclonal IgG
IgG in human serum = assay: Ig cleavage in human serum, anti-IgG Western blot; assay type: biochemical
Protocol: as §3

B1: IgdEporcinus: IgdE isolated from S. porcinus strain DSM20725, SEQ ID NO: 5 (protein, listed as Streptococcus porcinus)
chain: AVLARENSNSGQLHPEARQIKAVDFQEFSKKLKEEISENQQFHVFKLGMNNYYRSGIRINELNNLATEHDFILVNDHASHKKYDVPHIFIMNKGDVIVPSKEKYDEQMREVKFAGDQPNAQRQRIHALFEIGLDSNKRQLLNAAGLGTAENTLAKVDGFTIYSHGLTVDNKYYEDYIRFNKNENINITKERFTANDNLIHNLITESTAKVQTNDRDKVKAFVMYVANHTIYDWIAANNAVSNISDVNYYLGSDLFSITERKKAMCVGFSTTAARAFNMLGIPAYVVVGKNAQGVDHATARAYYNGKWHTIDGTGFINDKASRSTIYSENHFYSIGEDSYNIVDVNDEQIAFDKNYMKIDKVFEEWAQKQPTADLLLINKDKSLVPSNYVAYVAPVIVDNNRKGSLTQIYQNLKQVMESSSQKASLTSLLNTATADIAKLQTSSQLTQEDYNQIQNSMKSVLSFFWQLDKDSATNFENSEDYKKYLTETKNAGN
cleavage of polyclonal porcine IgG (32 kDa degradation product) (porcine IgG [1]): cleaved
cleavage of polyclonal human IgG (32 kDa degradation product) (human IgG): No degradation product was observed
cleavage of polyclonal cow IgG (cow IgG): No degradation product was observed
cleavage of polyclonal goat IgG (goat IgG): No degradation product was observed
cleavage of polyclonal horse IgG (horse IgG): No degradation product was observed
cleavage of polyclonal mouse IgG (mouse IgG): No degradation product was observed
cleavage of IgG in porcine plasma or serum (porcine IgG [2]): cleaved IgG in porcine serum
cleavage of IgA in porcine plasma or serum (porcine IgA): but not IgM or IgA
immunoglobulin specificity of the IgG degrading cysteine protease activity (IgG): specific for porcine IgG

B2: IgdEpseudoporcinus: IgdE isolated from S. pseudoporcinus strain ATCC BAA-1381, SEQ ID NO: 9 (protein, listed as Streptococcus pseudoporcinus)
chain: RENENVRQLQSENKQMKAVNLQEFSEKLKGEIAENQQFHIFKLGLNNYYIGGVRINELSDLAKNHDFIMIDNRATHNKYGVPHIIIMNKDDVIVHNQEDYNKEMAELTFAGDKPIQSDSYLPQKKRIHALFEIGLDSNRRQLLNAAGLKTPENSVIELDTFKIYSHGLAVDNKYYDEYSHFNNNTNVNITKQRFTENDNLIHNLITTSTAKDQPTDRDKVKTFVMYVANHTIYDWNAANNAVSNISDVNYYLGSDLFSITERKKAMCVGFSTTAARAFNMLGIPAYVVEGKNAQGVDHATARVYYNGKWHTIDGTGFINGNRTRSTLYTESHFRSVGEDSYQLVGLNEDIPFDRNYMKIDKVYEEWAPKQKTADLLLVNKDKSLVGLDRVAYVEPVYVDKNRQDALTQIYKKLKETMESSSKKNPSSGGFSSLLGSASSDIAKLEGSSQLTQEEYDKIHRSMTSILTFFAQLDKDAAEAFEKGNDYKNYLATTKHAQ
cleavage of polyclonal porcine IgG (32 kDa degradation product) (porcine IgG [1]): cleaved
cleavage of polyclonal human IgG (32 kDa degradation product) (human IgG): cleaved
cleavage of polyclonal cow IgG (cow IgG): No degradation product was observed
cleavage of polyclonal goat IgG (goat IgG): No degradation product was observed
cleavage of polyclonal horse IgG (horse IgG): No degradation product was observed
cleavage of polyclonal mouse IgG (mouse IgG): No degradation product was observed
cleavage of polyclonal rat IgG (rat IgG): No degradation product was observed
cleavage of IgG in porcine plasma or serum (porcine IgG [2]): cleaved IgG in human and porcine serum
cleavage of IgG in human serum (IgG in human serum): cleaved IgG in human and porcine serum
immunoglobulin specificity of the IgG degrading cysteine protease activity (IgG): specific for porcine IgG
